Experimental findings from article PMC4125116 are described below.

Assay [1] addresses BldM fused to the T18 or the T25 fragment of adenylate cyclase (BACTH) (Streptomyces venezuelae). Put plainly: two-hybrid; bacterial two-hybrid (BACTH), T18 (pUT18) and T25 (pKT25) fusions in E. coli BTH101; transformants grown at 30°C for two days; β-galactosidase assays of four independent clones.
The target in assay [2] is WhiI fused to the T18 or the T25 fragment of adenylate cyclase (BACTH) (Streptomyces venezuelae). The assay is described as above.

For the substance “BldM fused to the T18 or the T25 fragment of adenylate cyclase (BACTH) (natural protein)”, the values for the β-galactosidase activity (Miller units) in assay [1] and in assay [2] were 750 Miller units and 3000 Miller units, respectively. The substance “WhiI fused to the T18 or the T25 fragment of adenylate cyclase (BACTH) (natural protein)” yielded a β-galactosidase activity (Miller units) in assay [1] of 3000 Miller units.
